Data reported in the RNAGym collection of RNA variant scans (doi:10.1093/molbev/msab373).

B1: Azoarcus group I ribozyme (parent)
chain: GUGCCUUGCGCCGGGAAACCACGCAAGGGAUGGUGUCAAAUUCGGCGAAACCUAAGCGCCCGCCCGGGCGUAUGGCAACGCCGAGCCAAGCUUCGGCGCCUGCGCCGAUGAAGGUGUAGAGACUAGACGGCACCCACCUAAGGCAAACGCUAUGGUGAAGGCAUAGUCCAGGGAGUGGCGAAAGUCACACAAACCGG

Variants of: B1
Assay: reverse-splicing fitness (ratio to wild type); higher = more active; in vitro selection; Mg2+ level not given
Procedure, shortened: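 An in vitro group I ribozyme library with randomized positions was T7-transcribed and gel-purified. In triplicate, 10 pmol RNA in EPPS pH 7.5 was reacted with 50 pmoles of a 30-nt RNA substrate for 1 h at 37 °C across several added MgCl2 levels (1–48 mM), then stopped with EDTA. Products were reverse transcribed from a substrate-complementary primer, PCR-amplified and sequenced (HiSeq 4000). Fitness is a variant's read proportion after selection over that before, normalised to wild type.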

Row | Variant | reverse-splicing fitness
1 | C82U A111G A120C C150A C169A | 0.0107
2 | C82U A111G A120C C150A C169A U176A | 0.0215
3 | C82U A111G A120C C150A C169A U176C | 0.0156
4 | C82U A111G A120C C150A C169A U176G | 0.0042
5 | C82U A111G A120C C150A C169G | 0.0102
6 | C82U A111G A120C C150A C169G U176A | 0.0237
7 | C82U A111G A120C C150A C169G U176C | 0.0191
8 | C82U A111G A120C C150A C169G U176G | 0.00458
9 | C82U A111G A120C C150A C169U | 0.0114
10 | C82U A111G A120C C150A C169U U176A | 0.017
11 | C82U A111G A120C C150A C169U U176C | 0.0177
12 | C82U A111G A120C C150A C169U U176G | 0.00561
13 | C82U A111G A120C C150A U176A | 0.0127
14 | C82U A111G A120C C150A U176C | 0.0187
15 | C82U A111G A120C C150A U176G | 0.00554
16 | C82U A111G A120C C150G | 0.00825
17 | C82U A111G A120C C150G C169A | 0.0083
18 | C82U A111G A120C C150G C169A U176A | 0.00865
19 | C82U A111G A120C C150G C169A U176C | 0.0113
20 | C82U A111G A120C C150G C169A U176G | 0.00578
21 | C82U A111G A120C C150G C169G | 0.00713

Row | Variant | reverse-splicing fitness
22 | C82U A111G A120C C150G C169G U176A | 0.00718
23 | C82U A111G A120C C150G C169G U176C | 0.00429
24 | C82U A111G A120C C150G C169G U176G | 0.00467
25 | C82U A111G A120C C150G C169U | 0.00828
26 | C82U A111G A120C C150G C169U U176A | 0.00617
27 | C82U A111G A120C C150G C169U U176C | 0.0138
28 | C82U A111G A120C C150G C169U U176G | 0.00489
29 | C82U A111G A120C C150G U176A | 0.00392
30 | C82U A111G A120C C150G U176C | 0.00984
31 | C82U A111G A120C C150G U176G | 0.00249
32 | C82U A111G A120C C150U | 0.0325
33 | C82U A111G A120C C150U C169A | 0.00965
34 | C82U A111G A120C C150U C169A U176A | 0.0164
35 | C82U A111G A120C C150U C169A U176C | 0.011
36 | C82U A111G A120C C150U C169A U176G | 0.00397
37 | C82U A111G A120C C150U C169G | 0.00986
38 | C82U A111G A120C C150U C169G U176A | 0.0205
39 | C82U A111G A120C C150U C169G U176C | 0.0156
40 | C82U A111G A120C C150U C169G U176G | 0.00447
41 | C82U A111G A120C C150U C169U | 0.0124
42 | C82U A111G A120C C150U C169U U176A | 0.0154
